Experimental data taken from patent publication US20130251640.

What was measured:
[1] = test system: T1, substrate e, Mca-Ala-Gly-Phe-Ser-Leu**Pro-Ala-Lys(Dnp)-D-Arg-CONH2
T1 sequence: AGFSLPAKR

[2] = test system: T2, substrate b, Mca-Gly-Pro-Ile-Leu-Phe**Phe-Arg-Leu-Gly-Lys(Dnp)-DArg-CONH2
T2 sequence: GPILFFRLGKR

[3] = test system: T3, substrate d, Mca-Ala-Gly-Phe-Ser-Leu**Gly-Pro-Lys(Dnp)-DArg-CONH2
T3 sequence: AGFSLGPKR

[4] = test system: T4, substrate a, Mca-Gly-Ser-Pro-Ala-Phe**Leu-Ala-Lys(Dnp)-DArg-CONH2
T4 sequence: GSPAFLAKR

[5] = test system: T5, substrate c, Mca-Gly-Pro-Ile-Leu-Phe**Phe-Arg-Leu-Lys(Dnp)-DArg-CONH2
T5 sequence: GPILFFRLKR

“Cathepsin E (purchased from Calbiochem, EMD Bioscience)” showed a Kcat [1] of 322 S^-1, a Kcat/Km [1] of 16.7 and a Km [1] of 19.4 µM. The Vmax [1] was 2.2 µM S^-1, the “fluorescence intensity on hydrolysis (FRET substrate)” value (shortened to “fluorescence intensity on hydrolysis”) [1] was “substrate e was activated by Cath E quickly and reached saturation within 10 minutes” and the “fluorescence intensity on hydrolysis” value [2] was “Compared to substrate b, substrate c shows superior increase in the fluorescence intensity upon hydrolysis by both Cath E and Cath D”. The “fluorescence intensity on hydrolysis” value [3] was “substrate d showed relatively slow hydrolysis and did not reach saturation within the monitored period”, the “fluorescence intensity on hydrolysis” value [4] was “A prominent fluorescence increase of substrate a was observed instantaneously upon incubation with Cath E” and the “fluorescence intensity on hydrolysis” value [5] was “Compared to substrate b, substrate c shows superior increase in the fluorescence intensity upon hydrolysis by both Cath E and Cath D”.
For “Cathepsin D (purchased from Calbiochem, EMD Bioscience)”, the Kcat/Km [1] was “NM^a”, the “fluorescence intensity on hydrolysis” value [1] was “both substrates d and e exhibited similar slow hydrolysis by Cath D” and the “fluorescence intensity on hydrolysis” value [2] was “Compared to substrate b, substrate c shows superior increase in the fluorescence intensity upon hydrolysis by both Cath E and Cath D”. The “fluorescence intensity on hydrolysis” value [3] was “both substrates d and e exhibited similar slow hydrolysis by Cath D”, the “fluorescence intensity on hydrolysis” value [4] was “such leading increase in fluorescence signal with Cath E was observed as well upon incubation with Cath D” and the “fluorescence intensity on hydrolysis” value [5] was “Compared to substrate b, substrate c shows superior increase in the fluorescence intensity upon hydrolysis by both Cath E and Cath D”.
